Results taken from paper PMC8778164, “Towards Complete Tumor Resection: Novel Dual-Modality Probes for Improved Image-Guided Surgery of GRPR-Expressing Prostate Cancer” (Pharmaceutics, 2022).
Where two headings read alike, the source gives them in different places.

Assay: Ex vivo optical (fluorescence, IVIS) imaging of organs
Format: in vivo, mouse
Conditions: male, Balb/c nu/nu, mouse, iv, ex vivo radiant efficiency
Description: Seven-week-old male Balb/c nu/nu-specific and opportunistic pathogen-free (SOPF) mice (Janvier Labs, Le Genest-Saint-Isle, France) were housed in individually ventilated cages, with 4 mice per cage. Upon arrival, mice were acclimated for 1 week, with access to food and water ad libitum. Mice were subcutaneously inoculated on the right shoulder with PC-3 cells (5 × 10^6 cells suspended in 100 µL of 1/3 Matrigel (Corning Inc., Corning, NY, USA) and 2/3 Hank’s balanced salt solution (Gibco). PC-3 xenografts were allowed to grow for 3 weeks. Tumor sizes were 391 ± 173 mm^3 at the start of the studies. All animal experiments were approved by the Animal Welfare Committee of the Erasmus MC and were conducted in agreement with institutional guidelines (license number: AVD101002017867, 28 September 2017).
Before gamma counter measurements, the tumor half, pancreas, kidneys, lungs, small intestine, large intestine, liver, muscle, and bone were placed in two petri dishes and ex vivo optical imaging was performed with the IVIS Spectrum system (Perkin Elmer, Waltham, MA, USA) using the following settings for all measurements: FOV 12.6 cm, medium binning, f2, 0.5 s exposure with an excitation/emission filter of 640 nm/680 nm. Living Image version 4.5.2 software (Perkin Elmer) was used to perform data analysis by drawing a region of interest around the organ/tissue to quantify the radiant efficiency {(photons/second/cm^2/steradian)/(μW/cm^2)}.

[1] = tumor and kidney, blocked with 150 nmol unlabeled NeoB, n = 1, read-out: Tumor-to-kidney ratio (fluorescence)
[2] = tumor and kidney, non-blocked, n = 3, read-out: Tumor-to-kidney ratio (fluorescence)
[3] = tumor and liver, blocked with 150 nmol unlabeled NeoB, n = 1, read-out: Tumor-to-liver ratio (fluorescence)
[4] = tumor and liver, non-blocked, n = 3, read-out: Tumor-to-liver ratio (fluorescence)
[5] = tumor and muscle, blocked with 150 nmol unlabeled NeoB, n = 1, read-out: Tumor-to-muscle ratio (fluorescence)
[6] = tumor and muscle, non-blocked, n = 3, read-out: Tumor-to-muscle ratio (fluorescence)
[7] = tumor and pancreas, blocked with 150 nmol unlabeled NeoB, n = 1, read-out: Tumor-to-pancreas ratio (fluorescence)
[8] = tumor and pancreas, non-blocked, n = 3, read-out: Tumor-to-pancreas ratio (fluorescence)

| Structure (SMILES) | tissue to tissue ratio [1] | tissue to tissue ratio [2] | tissue to tissue ratio [3] | tissue to tissue ratio [4] | tissue to tissue ratio [5] | tissue to tissue ratio [6] | tissue to tissue ratio [7] | tissue to tissue ratio [8] |
| --- | --- | --- | --- | --- | --- | --- | --- | --- |
| CC(C)CC(CC(C)C)NC(=O)[C@H](Cc1c[nH]cn1)NC(=O)CNC(=O)[C@@H](NC(=O)[C@H](C)NC(=O)[C@H](Cc1c[nH]c2ccccc12)NC(=O)[C@H](CCC(N)=O)NC(=O)[C@@H](Cc1ccccc1)NC(=O)CCOCCOCCOCCOCCNC(=O)[C@H](CCCCNC(=O)OC1CCCC2C=NN=C(c3ccc(CNC(=O)CCCCC[N+]4=C(/C=C/C=C/C=C5N(C)c6ccc(S(=O)(=O)O)cc6C5(C)C)C(C)(C)c5cc(S(=O)(=O)[O-])ccc54)cc3)C2CC1)NC(=O)CN1CCN(CC(=O)O)CCN(CC(=O)O)CCN(CC(=O)O)CC1)C(C)C (stereo partly shown) [[^111In]In-15, metal not drawn] | 0.24 | 0.59 ± 0.14 | 0.84 | 1.96 ± 0.57 | 1.54 | 4.5 ± 1.87 | 1.25 | 0.95 ± 0.18 |
| CC(C)CC(CC(C)C)NC(=O)[C@H](Cc1c[nH]cn1)NC(=O)CNC(=O)[C@@H](NC(=O)[C@H](C)NC(=O)[C@H](Cc1c[nH]c2ccccc12)NC(=O)[C@H](CCC(N)=O)NC(=O)[C@@H](Cc1ccccc1)NC(=O)COCC(=O)Nc1ccc(CNC(=O)[C@H](CCCCNC(=O)CCOCCOCCOCCOCCNC(=O)OC2CCCC3C=NN=C(c4ccc(CNC(=O)CCCCC[N+]5=C(/C=C/C=C/C=C6N(C)c7ccc(S(=O)(=O)O)cc7C6(C)C)C(C)(C)c6cc(S(=O)(=O)[O-])ccc65)cc4)C3CC2)NC(=O)CN2CCN(CC(=O)O)CCN(CC(=O)O)CCN(CC(=O)O)CC2)cc1)C(C)C (stereo partly shown) [[^111In]In-12, metal not drawn] | 0.31 | 0.47 ± 0.16 | 0.69 | 1.96 ± 0.47 | 2.21 | 5.69 ± 1.94 | 2.54 | 0.69 ± 0.22 |
